{"source": "patent US7423021", "key": {"[1]": {"biological_target": "human thrombin (human) (UniProt P00734)", "experiment": "cell-based or functional assay"}, "[2]": {"biological_target": "human thrombin (human) (UniProt P00734)", "experiment": "competitive inhibition of human thrombin hydrolysis of the fluorogenic substrate Tos-Gly-Pro-Arg-AMC, Hanes analysis"}}}
{"substance": "N-acetyl-L-Ala-L-Cha-D-Pro-D-Tyr-L-Arg amide (peptide)", "values": [{"measurement": "inhibition of the amidase activity of thrombin at 1 µM peptide", "setting": "[1]", "result": 44, "unit": "%"}]}
{"substance": "N-acetyl-L-Ala-D-Cha-L-Pro-D-Tyr-L-Har amide (peptide)", "values": [{"measurement": "inhibition of the amidase activity of thrombin at 1 µM peptide", "setting": "[1]", "result": 56, "unit": "%"}]}
{"substance": "N-acetyl-L-Nhm-D-Cha-L-Aze-D-Tyr-L-Har amide (peptide)", "values": [{"measurement": "inhibition of the amidase activity of thrombin at 250 nM peptide", "setting": "[1]", "result": 80, "unit": "%"}]}
{"substance": "N-acetyl-L-Ala-D-Cha-L-Aze-D-Tyr-L-Arg amide (peptide)", "values": [{"measurement": "inhibition of the amidase activity of thrombin at 1 µM peptide", "setting": "[1]", "result": 63, "unit": "%"}]}
{"substance": "N-acetyl-L-Trp-L-Cha-D-Pro-D-Tyr-L-Arg amide (peptide)", "values": [{"measurement": "inhibition of the amidase activity of thrombin at 1 µM peptide", "setting": "[1]", "result": 63, "unit": "%"}]}
{"substance": "N-acetyl-D-Val-L-Cha-D-Pro-D-Tyr-L-Arg amide (peptide)", "values": [{"measurement": "inhibition of the amidase activity of thrombin at 1 µM peptide", "setting": "[1]", "result": 45, "unit": "%"}]}
{"substance": "N-acetyl-L-Ala-D-Cha-L-Aze-D-Tyr-L-Har amide (peptide)", "values": [{"measurement": "inhibition of the amidase activity of thrombin at 250 nM peptide", "setting": "[1]", "result": 77, "unit": "%"}]}
{"substance": "N-acetyl-L-Iq3-D-Cha-L-Aze-D-Tyr-L-Har amide (peptide)", "values": [{"measurement": "inhibition of the amidase activity of thrombin at 250 nM peptide", "setting": "[1]", "result": 72, "unit": "%"}]}
{"substance": "N-acetyl-L-Nle-D-Cha-L-Aze-D-Tyr-L-Har amide (peptide)", "values": [{"measurement": "inhibition of the amidase activity of thrombin at 250 nM peptide", "setting": "[1]", "result": 89, "unit": "%"}]}
{"substance": "N-acetyl-L-Trp-D-Cha-L-Aze-D-Tyr-L-Har amide (peptide)", "values": [{"measurement": "inhibition of the amidase activity of thrombin at 250 nM peptide", "setting": "[1]", "result": 76, "unit": "%"}]}
{"substance": "N-acetyl-D-Tyr-L-Cha-D-Pro-D-Tyr-L-Arg amide (peptide)", "values": [{"measurement": "inhibition of the amidase activity of thrombin at 1 µM peptide", "setting": "[1]", "result": 47, "unit": "%"}]}
{"substance": "N-acetyl-L-Ser-L-Ala-L-Cha-D-Pro-D-Tyr-L-Arg amide (peptide)", "values": [{"measurement": "inhibition of the amidase activity of thrombin at 1 µM peptide", "setting": "[1]", "result": 47, "unit": "%"}]}
{"substance": "N-acetyl-D-Glu-L-Cha-D-Pro-D-Tyr-L-Arg amide (peptide)", "values": [{"measurement": "inhibition of the amidase activity of thrombin at 1 µM peptide", "setting": "[1]", "result": 58, "unit": "%"}]}
{"substance": "N-acetyl-D-Gln-D-His-L-Cha-D-Pro-D-Tyr-L-Arg amide (peptide)", "values": [{"measurement": "inhibition of the amidase activity of thrombin at 1 µM peptide", "setting": "[1]", "result": 59, "unit": "%"}]}
{"substance": "N-acetyl-L-Ser-L-Arg-L-Cha-D-Pro-D-Tyr-L-Arg amide (peptide)", "values": [{"measurement": "inhibition of the amidase activity of thrombin at 1 µM peptide", "setting": "[1]", "result": 51, "unit": "%"}]}
{"substance": "N-acetyl-L-Phg-D-Cha-L-Aze-D-Tyr-L-Har amide (peptide)", "values": [{"measurement": "inhibition of the amidase activity of thrombin at 250 nM peptide", "setting": "[1]", "result": 95, "unit": "%"}]}
{"substance": "N-acetyl-L-Ppd-D-Cha-L-Aze-D-Tyr-L-Har amide (peptide)", "values": [{"measurement": "inhibition of the amidase activity of thrombin at 250 nM peptide", "setting": "[1]", "result": 76, "unit": "%"}]}
{"substance": "Tranexamic acid-D-Cha-L-Aze-D-Try-L-Har amide (peptide)", "values": [{"measurement": "Ki", "setting": "[2]", "result": 7, "unit": "nM"}]}
{"substance": "N-acetyl-D-Val-D-His-L-Cha-D-Pro-D-Tyr-L-Arg amide (peptide)", "values": [{"measurement": "inhibition of the amidase activity of thrombin at 1 µM peptide", "setting": "[1]", "result": 51, "unit": "%"}]}
{"substance": "N-acetyl-L-Arg-L-Cha-D-Pro-D-Tyr-L-Arg amide (peptide)", "values": [{"measurement": "inhibition of the amidase activity of thrombin at 1 µM peptide", "setting": "[1]", "result": 47, "unit": "%"}]}
{"substance": "N-acetyl-L-Cha-D-Cha-L-Aze-D-Tyr-L-Har amide (peptide)", "values": [{"measurement": "inhibition of the amidase activity of thrombin at 250 nM peptide", "setting": "[1]", "result": 90, "unit": "%"}]}
{"substance": "N-acetyl-D-Phe-D-Cha-L-Aze-D-Tyr-L-Har amide (peptide)", "values": [{"measurement": "inhibition of the amidase activity of thrombin at 250 nM peptide", "setting": "[1]", "result": 77, "unit": "%"}]}
{"substance": "N-acetyl-L-Dcp-D-Cha-L-Aze-D-Tyr-L-Har amide (peptide)", "values": [{"measurement": "inhibition of the amidase activity of thrombin at 250 nM peptide", "setting": "[1]", "result": 75, "unit": "%"}]}
{"substance": "N-acetyl-L-Pnp-D-Cha-L-Aze-D-Tyr-L-Har amide (peptide)", "values": [{"measurement": "inhibition of the amidase activity of thrombin at 250 nM peptide", "setting": "[1]", "result": 72, "unit": "%"}]}
{"substance": "N-acetyl-L-Ile-L-Arg-L-Cha-D-Pro-D-Tyr-L-Arg amide (peptide)", "values": [{"measurement": "inhibition of the amidase activity of thrombin at 1 µM peptide", "setting": "[1]", "result": 61, "unit": "%"}]}
{"substance": "N-acetyl-D-Lys-L-Nle-L-Cha-D-Pro-D-Tyr-L-Arg amide (peptide)", "values": [{"measurement": "inhibition of the amidase activity of thrombin at 1 µM peptide", "setting": "[1]", "result": 48, "unit": "%"}]}
{"substance": "N-acetyl-L-Tyr-L-Cit-L-Cha-D-Pro-D-Tyr-L-Arg amide (peptide)", "values": [{"measurement": "inhibition of the amidase activity of thrombin at 1 µM peptide", "setting": "[1]", "result": 55, "unit": "%"}]}
{"substance": "N-acetyl-L-Tea-D-Cha-L-Aze-D-Tyr-L-Har amide (peptide)", "values": [{"measurement": "inhibition of the amidase activity of thrombin at 250 nM peptide", "setting": "[1]", "result": 74, "unit": "%"}]}
{"substance": "Trans-4-(guanidinomethyl)cyclohexanecarboxylic acid-D-Cha-L-Aze-D-Try-L-Har amide (peptide)", "values": [{"measurement": "Ki", "setting": "[2]", "result": 3, "unit": "nM"}]}
{"substance": "N-acetyl-L-Tyr-D-Pro-L-Cha-D-Pro-D-Tyr-L-Arg amide (peptide)", "values": [{"measurement": "inhibition of the amidase activity of thrombin at 1 µM peptide", "setting": "[1]", "result": 44, "unit": "%"}]}
{"substance": "N-acetyl-L-Ser-L-Ser-L-Cha-D-Pro-D-Tyr-L-Arg amide (peptide)", "values": [{"measurement": "inhibition of the amidase activity of thrombin at 1 µM peptide", "setting": "[1]", "result": 40, "unit": "%"}]}
